Measurements: patent publication US20240010735A1 (EISAI R AND D MANAGEMENT, published 2024)

Key:
[1] = biological target: T1, human EphA4 extracellular region-SEAP-His protein (human, UniProt P54764 20-547); assay: SPR, Biacore T200; EphA4 extracellular region-SEAP-His captured on anti-His chip, antibody as analyte, 1:1 model
T1 construct: also called human EphA4 extracellular region-SEAP-His 10; not shown: secretory alkaline phosphatase (SEAP); histidine tag
Method: The binding affinity of antibody A against mouse and human EphA4 was determined by surface plasmon resonance (SPR method) employing Biacore T200 (GE Healthcare). First, anti-His antibodies (GE Healthcare, 28-9950-56) were fixed to a sensor chip CM5. Fixation was carried out by amine coupling method employing N-hydroxysuccinimide (NHS) and N-ethyl-N′-(3-dimethylaminopropyl) carbodiimide hydrochloride salt (EDC), and ethanolamine was employed for blocking (the sensor chip and reagents for fixation are all from GE Healthcare). This was diluted with the fixation buffer (10 mM sodium acetate, pH 4.5) to 3.5 μg/mL, and fixed onto the sensor chip according to the protocol accompanying Biacore T200. Mouse or human EphA4 extracellular region-SEAP-His 10 was diluted with the running buffer HBS-EP (GE Healthcare, BR-1001-88), and the solution was sent and captured onto the flow cell for 120 seconds (about 10 RU of captured amount). Subsequently, antibody A serially diluted to a range of 100, 50, 25, 12.5, 6.3, 3.2, 1.6, 0 nM with HBS-EP was added to the sensor chip for 120 seconds, and the binding reaction curve at the time of addition (binding phase, 120 seconds) and after completing the addition (dissociation phase, 600 seconds) was sequentially observed. Upon completion of each observation, 4 M MgCl₂ (60 seconds, Wako Pure Chemicals) was added to regenerate the sensor chip. Fitting analysis by 1:1 binding model employing the software accompanying the system, BIA evaluation software, was carried out against the binding reaction curve obtained, and the binding affinity (KD=kd/ka) against mouse and human EphA4 was calculated.
The binding affinity of antibody B obtained in Example 1 against human EphA4 was determined by surface plasmon resonance (SPR method) employing Biacore T200 (GE Healthcare). First, anti-His antibodies (GE Healthcare, 28-9950-56) were fixed to a sensor chip CMS. […]

[2] = biological target: T2, mouse EphA4 extracellular region-SEAP-His protein (mouse); assay: competition ELISA; captured mouse EphA4 extracellular region-SEAP-His, competitor biotinylated mouse EphrinA1-Fc chimera (6 nM)
T2 construct: also called mouse EphA4 extracellular region-SEAP-His 10
T2 sequence (chain, as listed by the source limits assumed): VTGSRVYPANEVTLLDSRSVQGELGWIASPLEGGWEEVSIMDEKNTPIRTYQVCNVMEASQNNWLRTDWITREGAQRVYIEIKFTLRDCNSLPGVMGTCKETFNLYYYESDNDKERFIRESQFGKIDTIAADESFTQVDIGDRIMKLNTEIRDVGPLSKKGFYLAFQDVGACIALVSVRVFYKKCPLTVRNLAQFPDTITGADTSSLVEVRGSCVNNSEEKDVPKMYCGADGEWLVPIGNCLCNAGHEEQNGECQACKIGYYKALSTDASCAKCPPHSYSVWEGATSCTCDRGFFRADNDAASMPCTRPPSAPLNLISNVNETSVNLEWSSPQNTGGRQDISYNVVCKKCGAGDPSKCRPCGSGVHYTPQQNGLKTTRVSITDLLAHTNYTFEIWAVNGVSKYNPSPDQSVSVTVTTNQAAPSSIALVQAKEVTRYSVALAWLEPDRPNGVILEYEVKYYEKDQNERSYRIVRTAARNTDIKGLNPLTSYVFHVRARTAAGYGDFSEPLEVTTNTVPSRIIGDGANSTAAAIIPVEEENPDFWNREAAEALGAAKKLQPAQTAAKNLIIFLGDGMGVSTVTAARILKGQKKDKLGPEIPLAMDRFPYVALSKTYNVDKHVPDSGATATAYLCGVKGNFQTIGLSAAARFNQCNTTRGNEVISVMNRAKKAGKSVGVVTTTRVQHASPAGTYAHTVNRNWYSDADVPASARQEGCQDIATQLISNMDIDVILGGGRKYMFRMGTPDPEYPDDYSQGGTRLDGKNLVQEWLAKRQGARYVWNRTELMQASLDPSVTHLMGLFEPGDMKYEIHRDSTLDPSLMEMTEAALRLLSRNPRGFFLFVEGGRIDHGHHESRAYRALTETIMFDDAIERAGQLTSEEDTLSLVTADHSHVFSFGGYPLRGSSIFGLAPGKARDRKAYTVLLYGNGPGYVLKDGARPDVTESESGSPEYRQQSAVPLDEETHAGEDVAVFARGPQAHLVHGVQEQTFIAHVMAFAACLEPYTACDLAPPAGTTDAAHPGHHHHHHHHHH
Method: Anti-alkaline phosphatase antibodies (Thermo […]) were coated onto the wells of a 96-well plate (Nunc). After incubating at 4° C. overnight, the wells were blocked at room temperature for 1 hour by 1% Block Ace (DS Pharma Biomedical). After washing 3 times with 0.02% Tween 20/PBS (Thermo […]), mouse EphA4 extracellular region-SEAP-His protein was added to the wells (final concentration 10 nM), and incubated at room temperature for 1 hour. After washing 3 times, the ligand and antibody A (0, 0.003, 0.01, 0.03, 0.1, 0.3, 1, 3, 10, 30, 100, 300, 1000, 3000 nM) were supplemented to the wells. Note that biotinylated mouse EphrinA1-Fc chimera (R&D Systems, final concentration 6 nM) and biotinylated mouse EphrinB2-Fc chimera (R&D Systems, final concentration 2.5 nM) were employed as ligands. After incubating at room temperature for 1 hour and washing 3 times, horseradish peroxidase-labeled streptavidin (GE Healthcare) was added, and incubated at room temperature for 1 hour. After washing 3 times, TMBZ (3,3′, 5,5′-tetramethylbenzidine, Sigma) solution was added to the wells, and incubated at room temperature for 2 minutes. An equal amount of quenching solution (1 N H₂SO₄, Wako Pure Chemicals) was added to the wells, and absorbance at 450 nm was read by a microplate reader (PerkinElmer). […]

T1 sequence (P54764 20-547): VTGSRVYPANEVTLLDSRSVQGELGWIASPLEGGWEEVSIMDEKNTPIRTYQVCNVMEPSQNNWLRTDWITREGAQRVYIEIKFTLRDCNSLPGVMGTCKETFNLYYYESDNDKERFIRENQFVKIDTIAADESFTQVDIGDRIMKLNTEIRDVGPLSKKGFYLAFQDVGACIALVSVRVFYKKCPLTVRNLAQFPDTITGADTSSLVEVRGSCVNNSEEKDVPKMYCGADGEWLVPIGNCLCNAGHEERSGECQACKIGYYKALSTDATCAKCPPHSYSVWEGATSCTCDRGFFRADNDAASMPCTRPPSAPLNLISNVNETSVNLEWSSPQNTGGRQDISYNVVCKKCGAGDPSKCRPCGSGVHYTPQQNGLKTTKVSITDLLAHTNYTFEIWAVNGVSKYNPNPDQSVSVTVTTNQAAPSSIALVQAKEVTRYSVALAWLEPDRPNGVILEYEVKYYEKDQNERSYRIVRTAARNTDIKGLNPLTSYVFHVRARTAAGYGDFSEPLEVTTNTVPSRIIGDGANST

| Binder | Kd [1] | IC50 [2] |
| --- | --- | --- |
| humanized anti-EphA4 monoclonal antibody (antibody B) (antibody, human IgG2, V domains shown, expressed in Expi293F cells; also called humanized antibody of antibody A; HK2-42 / L1-8) VH: QVQLVESGGGVVQPGRSLRLSCAVSGFSLTRFGVHWVRQAPGKGLEWVAVIWRGGSTDYNAAFMSRLTISKDNSKNTVYLQMNSLRAEDTAVYYCAKESLFGVYYDYGYYSMDYWGQGTTVTVSS VL: DIQMTQSPSSLSASVGDRVTITCRASQEISGYLSWLQQKPGKAPKRLIYAASTLDSGVPSRFSGSRSGTEYTLTISSLQPEDFATYYCLQYASYPLTFGGGTKVEIKR | 1.34 nM | ~8.7 nM |
| mouse anti-EphA4 monoclonal antibody (antibody A) (antibody, mouse IgG1, kappa, V domains shown, purified from hybridoma supernatant) VH: QVQLKQSGPSLVQPSQSLSITCTVSGFSLTRYGVHWVRQSPGKGLEWLGVIWRGGSTDYNAAFMSRLSITKDNSKSQVFFKMNSLQADDTAIYYCAKESLFGVYYDYGYYSMDYWGQGTSVTVSS VL: DIQMTQSPSSLSASLGERVSLTCRASQEISGYLSWLQQKPDGTIKRLIYAASTLDSGVPKRFSGSRSGSDYSLTISSLESEDFADYYCLQYASYPLTFGAGTKLELKR | 1.19 nM | ~5.9 nM |
